B1: NisC (cyclase of nisin precursor peptide) (enzyme, Lactococcus lactis, UniProt Q03202 1-418, looked up)
chain: MRIMMNKKNIKRNVEKIIAQWDERTRKNKENFDFGELTLSTGLPGIILMLAELKNKDNSKIYQKKIDNYIEYIVSKLSTYGLLTGSLYSGAAGIALSILHLREDDEKYKNLLDSLNRYIEYFVREKIEGFNLENITPPDYDVIEGLSGILSYLLLINDEQYDDLKILIINFLSNLTKENNGLISLYIKSENQMSQSESEMYPLGCLNMGLAHGLAGVGCILAYAHIKGYSNEASLSALQKIIFIYEKFELERKKQFLWKDGLVADELKKEKVIREASFIRDAWCYGGPGISLLYLYGGLALDNDYFVDKAEKILESAMQRKLGIDSYMICHGYSGLIEICSLFKRLLNTKKFDSYMEEFNVNSEQILEEYGDESGTGFLEGISGCILVLSKFEYSINFTYWRQALLLFDDFLKGGKRK
notes: NisC, nisin cyclase of Lactococcus lactis; NisC alone was not held on Ni-NTA beads, so it probably bore no His tag in the assay; source: purified
B2: 10HNisT (deca-histidine tagged NisT, ABC transporter of the nisin precursor peptide) (natural protein, Lactococcus lactis, UniProt Q03203 1-600, looked up)
chain: MDEVKEFTSKQFFYTLLTLPSTLKLIFQLEKRYAIYLIVLNAITAFVPLASLFIYQDLINSVLGSGRHLINIIIIYFIVQVITTVLGQLESYVSGKFDMRLSYSINMRLMRTTSSLELSDYEQADMYNIIEKVTQDSTYKPFQLFNAIIVELSSFISLLSSLFFIGTWNIGVAILLLIVPVLSLVLFLRVGQLEFLIQWQRASSERETWYIVYLLTHDFSFKEIKLNNISNYFIHKFGKLKKGFINQDLAIARKKTYFNIFLDFILNLINILTIFAMILSVRAGKLLIGNLVSLIQAISKINTYSQTMIQNIYIIYNTSLFMEQLFEFLKRESVVHKKIEDTEICNQHIGTVKVINLSYVYPNSNAFALKNINLSFEKGELTAIVGKNGSGKSTLVKIISGLYQPTMGIIQYDKMRSSLMPEEFYQKNISVLFQDFVKYELTIRENIGLSDLSSQWEDEKIIKVLDNLGLDFLKTNNQYVLDTQLGNWFQEGHQLSGGQWQKIALARTFFKKASIYILDEPSAALDPVAEKEIFDYFVALSENNISIFISHSLNAARKANKIVVMKDGQVEDVGSHDVLLRRCQYYQELYYSEQYEDNDE
notes: NisT, lanthipeptide ABC transporter of Lactococcus lactis; nisT gene amplified from genomic DNA of L. lactis NZ97000 and inserted into pNZ-SV10H; TMD is residues 1-347, the NBD begins at H348; Used in detergent (CYMAL5) in the pull-down; also called WT; source: L. lactis NZ9000 (pNZ-SV10HnisT), membranes solubilised with FC-16, purified (IMAC, SEC); not shown: His10 (deca-histidine), N-terminal, …

For one test, the target named is T1, NisT (10HNisT) (Lactococcus lactis, UniProt Q03203).
T1 construct: full length, N-terminal deca-His tag with linker (tag kept), homologous expression in L. lactis NZ9000, solubilised in Fos-choline-16, assayed in CYMAL5
T1 sequence (Q03203 1-600): B2 chain
Put plainly: malachite green phosphate release assay, Michaelis-Menten fit. The class given is biochemical. To be noted: basal ATPase, no peptide substrate; 1 µM NisT, ATP 0-5 mM, 10 mM MgCl2, 0.4% CYMAL5, 30 °C, 30 min.

Test [1] deals with B2. Put plainly: pull-down; 10HNisT (~15 ug) immobilised on Ni-NTA magnetic beads; 10 uM NisB, NisC or NisBC added without substrate; activity assay buffer with 0.4% CYMAL5, 400 mM glutamate, 5 mM MgATP; 1 h at 30 C; six washes, elution with 50 mM EDTA; Western blot. To be noted: both partners purified. Background: Immunoblotting shows a protein as a band on a membrane.
Test [2] addresses T2, NisB (dehydratase of nisin precursor peptide) (Lactococcus lactis, UniProt P20103 1-993).
T2 construct: NisB, nisin dehydratase of Lactococcus lactis; NisB alone was not held on Ni-NTA beads, so it probably bore no His tag in the assay; source: purified
T2 sequence (looked up): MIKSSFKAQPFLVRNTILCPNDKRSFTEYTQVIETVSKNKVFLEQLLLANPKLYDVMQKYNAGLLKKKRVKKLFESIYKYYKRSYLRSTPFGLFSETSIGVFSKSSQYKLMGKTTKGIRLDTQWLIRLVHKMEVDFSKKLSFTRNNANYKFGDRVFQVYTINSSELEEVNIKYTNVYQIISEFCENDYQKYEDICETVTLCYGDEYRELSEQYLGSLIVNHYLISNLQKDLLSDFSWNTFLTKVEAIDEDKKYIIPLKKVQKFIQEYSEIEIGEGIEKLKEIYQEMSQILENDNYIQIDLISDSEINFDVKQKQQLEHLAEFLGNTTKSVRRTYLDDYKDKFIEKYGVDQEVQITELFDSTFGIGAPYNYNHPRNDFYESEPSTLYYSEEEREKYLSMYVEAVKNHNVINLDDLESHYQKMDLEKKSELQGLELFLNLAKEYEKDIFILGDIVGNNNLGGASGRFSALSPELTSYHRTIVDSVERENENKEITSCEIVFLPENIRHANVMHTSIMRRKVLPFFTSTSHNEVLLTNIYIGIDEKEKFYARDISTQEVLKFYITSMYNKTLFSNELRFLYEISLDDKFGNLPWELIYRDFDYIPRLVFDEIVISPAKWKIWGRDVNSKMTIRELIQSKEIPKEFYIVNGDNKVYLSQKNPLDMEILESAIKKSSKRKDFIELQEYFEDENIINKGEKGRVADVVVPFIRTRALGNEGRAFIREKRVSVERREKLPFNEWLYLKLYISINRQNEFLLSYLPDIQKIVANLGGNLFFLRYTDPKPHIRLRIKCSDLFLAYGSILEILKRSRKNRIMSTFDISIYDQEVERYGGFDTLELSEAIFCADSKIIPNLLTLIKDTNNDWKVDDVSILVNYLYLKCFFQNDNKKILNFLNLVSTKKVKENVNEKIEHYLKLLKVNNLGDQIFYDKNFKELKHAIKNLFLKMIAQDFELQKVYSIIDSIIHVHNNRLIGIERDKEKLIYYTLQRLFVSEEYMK
The description is as above. The settings on record: both partners purified.

In the case of `Nc1ncnc2c1ncn2[C@@H]1O[C@H](COP(=O)(O)OP(=O)(O)OP(=O)(O)O)[C@@H](O)[C@H]1O` [ATP], the Km – broadly, the substrate concentration at which the rate is half of its maximum – at NisT (10HNisT) is 370 ± 40 µM.

On to B1, for which the binding result in test [1] is “binds”.

For the molecule B2, in test [2], the binding result is recorded as “binds”.

Values taken from publication PMC7378552, “Impact of the nisin modification machinery on the transport kinetics of NisT” (Scientific Reports, 2020).
